Values quoted from earlier work in paper PMC5430790.

Tests used:
TβR-I (Homo sapiens) = TβR-I (Homo sapiens) (UniProt P36897)
TβR-II (Homo sapiens) = TβR-II (Homo sapiens) (UniProt P37173)
Sequence of TβR-II (Homo sapiens) (P37173 23-166): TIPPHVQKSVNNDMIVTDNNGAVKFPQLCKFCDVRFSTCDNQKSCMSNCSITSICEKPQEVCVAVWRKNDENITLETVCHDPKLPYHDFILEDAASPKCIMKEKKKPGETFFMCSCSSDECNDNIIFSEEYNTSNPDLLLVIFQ

Sequence of TGF-β1 (P01137 279-390): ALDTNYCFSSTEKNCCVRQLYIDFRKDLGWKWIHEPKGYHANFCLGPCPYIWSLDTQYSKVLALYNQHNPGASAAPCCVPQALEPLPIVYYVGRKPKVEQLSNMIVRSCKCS
Sequence of TβR-I (Homo sapiens) (P36897 34-126): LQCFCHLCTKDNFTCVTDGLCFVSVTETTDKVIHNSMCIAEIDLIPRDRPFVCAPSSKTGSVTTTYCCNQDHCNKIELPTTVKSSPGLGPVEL

Kd (TβR-I (Homo sapiens)): 70 µM | Kd (TβR-II (Homo sapiens)): 0.19 µM
Substance: TGF-β1 (from UniProt P01137)
